In PMC4865400:

What was measured:
[1] = molecular target: SH2 domain of ABL1 kinase fused to the 434 phage cI repressor (UniProt P00519); assay: two-hybrid
[2] = molecular target: toxin-binding region from T. ni cadherin (TnCAD-FL) (Trichoplusia ni); assay: BLI

| Substance | fold transcriptional activation [1] | Kd [2] |
| --- | --- | --- |
| wild-type HA4 monobody fused to RpoZ (designed binder) | > 200 fold |  |
| wild-type Cry1Ac, trypsin-activated (from UniProt P05068 1-1178) (natural protein) |  | > 1000 µM |
